Target: growth hormone receptor (GHR) on pancreatic cancer cells (human) (UniProt P10912)
Assay: cell-based or functional assay

Chain of UniProt P10912 (P10912 19-638): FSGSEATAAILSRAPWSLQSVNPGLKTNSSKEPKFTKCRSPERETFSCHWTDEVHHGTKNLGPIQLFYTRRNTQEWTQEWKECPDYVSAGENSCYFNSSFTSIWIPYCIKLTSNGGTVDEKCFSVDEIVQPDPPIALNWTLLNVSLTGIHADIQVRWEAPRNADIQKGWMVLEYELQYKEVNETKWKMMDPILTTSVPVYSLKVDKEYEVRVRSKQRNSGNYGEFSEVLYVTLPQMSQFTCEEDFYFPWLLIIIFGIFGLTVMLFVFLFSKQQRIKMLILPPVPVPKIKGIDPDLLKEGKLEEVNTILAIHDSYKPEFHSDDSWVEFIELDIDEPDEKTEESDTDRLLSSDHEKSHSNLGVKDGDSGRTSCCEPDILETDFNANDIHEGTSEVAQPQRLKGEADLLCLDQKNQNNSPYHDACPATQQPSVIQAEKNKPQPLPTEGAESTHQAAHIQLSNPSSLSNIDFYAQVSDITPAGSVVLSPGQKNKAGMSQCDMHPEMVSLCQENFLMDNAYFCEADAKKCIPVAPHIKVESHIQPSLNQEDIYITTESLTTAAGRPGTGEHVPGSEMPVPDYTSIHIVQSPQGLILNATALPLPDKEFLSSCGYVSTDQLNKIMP

drug efflux rate (DiOC2 dye), pancreatic cancer cells, 120 minutes [fold]	percentage of drug retention after 120 minutes, pancreatic cancer cells [%]	Substance
2	83	Compound G (hGHR antagonist hGH-G120K having T142 and H151 changed to cysteine and having both added cysteines conjugated with dPEG-A) (from UniProt P01241 27-217) (ligand)
2	83	pegvisomant (SOMAVERT) (ligand)

From patent publication US20220040266A1
